System: MS2 coat protein
Assay: apparent KD of MS2 coat protein; designed switch direction (-1 OFF switch, 1 ON switch): 1; higher = weaker reporter binding
How it was run: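 The reported apparent KD is a per-design median over clusters, from curve fits of normalised cluster fluorescence. Protein titrations used SNAP-549-labelled MS2 coat protein, doubled from 0.7 or 1.5 nM to 3 µM, in Tris-HCl pH 7.5 buffer with KCl, MgCl2, BSA, DTT, tRNA and Tween-20, with no input, 200 uM small-molecule ligand, or an oligonucleotide input. The RNA switches were transcribed on Illumina chips by stalled E. coli RNA polymerase.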

[1] = Eterna round: R95, input ligand: microRNA oligo, concentration not stated
[2] = Eterna round: R95, input ligand: FMN 200 uM
[3] = Eterna round: R95, input ligand: none
[4] = input ligand: microRNA oligo, concentration not stated

Sequence | apparent KD of MS2 coat protein [1] | apparent KD of MS2 coat protein [2] | apparent KD of MS2 coat protein [3] | apparent KD of MS2 coat protein (input ligand: FMN 200 uM) | apparent KD of MS2 coat protein [4] | apparent KD of MS2 coat protein (input ligand: none)
GUAGGACAUGAGGAUCACCCAUGUGGGAGGGAACGAGGAUAUGUGAAAGGAUUGAAGAGGACAGAAGGCGUGGAGG [JR_SS1_Sub026] (puzzle: Same State 1) | 30.1 nM |  |  |  |  | 
AUAAGUUUGAUGCUCGUCUCUCCGUACAGACAUGAGGAUCACCCAUGUAGUCAGGAAGUAGCCUGGCCAGUAUGGCC [Berave] (puzzle: Sensor for hsa-mir-208a) | 16.6 nM | 27.5 nM | 31.1 nM |  |  | 
ACCCGCGGGCCACAUGAGGAUCACCCAUGUGACCGGUGAUCCAAGGAUAUGUGUAGGGUAGAUGCACAGAAGGUGGCCAAAACU [Ainriqu] (Eterna round: R96, puzzle: Same State NG 3) |  |  |  | 26.6 nM | 14.8 nM | 18.5 nM
GCAGCCGGCACUGAGGAUAUUCAUAUUAAAACAUGAGGAUCACCCAUGUAGGCCAGAAGGCCUUGGGAGAAGGCAGGUCGGCUGG [Mat - Same State 2 - Mod of UCT - D63] (puzzle: Same State 2) | 219 nM | 20.8 nM | 232 nM |  |  | 
CACGUCUAGGUAGGAUAUGAGGUGCCACAGGGAAAAGCCUAUGGACAUGAGGAUCACCCAUGUCCUCAGAAGGGCCAGACGUGA [Inzala] (Eterna round: R96, puzzle: Same State NG 2) |  |  |  | 25.9 nM | 36.9 nM | 52.4 nM
GGUCCAGCUUUUGCUGGUCCUUCGCUUGCACAUGAGGAUCACCCAUGUCGUGUACAUGCUUGGUGCCCGUCUUUUUU [Photon Torp-16] (puzzle: Sensor for hsa-mir-208a) | 44.9 nM | 137 nM | 229 nM |  |  | 
GGAAUAUUUACAGGAUAUGAUUUGUAAAGUCGAUCAGAAGGGUGGAUGUCUUACACGGUUUGUUACAUGAGGAUCACCCAUGUC [SameState NG1 #13] (Eterna round: R96, puzzle: Same State NG 1) |  |  |  | 232 nM | 233 nM | 378 nM
UGCUAUUGUAUAUUGGUGCAAGCUUUUUGACAUGAGGAUCACCCAUGUACUCGUCUUUAGCGCAGUCCGUAGACUGC (puzzle: Sensor for hsa-mir-208a) | 13.5 nM | 52.4 nM | 56.6 nM |  |  | 
GGUCCGGCCUGAGCUGGACCGGAGCAUGUACAUGAGGAUCACCCAUGUCAUGUACAGGCUUCUUGCUCGUCUUGUUG [JL-shm-2.16 JL Mod] (Eterna round: R96, puzzle: Sensor for hsa-mir-208a) |  |  |  | 282 nM | 14.8 nM | 130 nM
UUGAAGAAUUAAGGAUAUUGAGUACAUAUGUUUAACAUGAGGAUCACCCAUGUGGGUUGCGGUAUCGAGAAGGUAAAUUACAAG [JL SSNG2 1.44] (Eterna round: R96, puzzle: Same State NG 2) |  |  |  | 105 nM | 91.8 nM | 138 nM
GCAGCACAUGAGGAUCACCCAUGUCUUCGGAGUCGAGGAUAUGGUCACUGUAAACAGUGGCCAGAAGGCGAGUUGC [SS1 - Son of Teenbexe v5] (puzzle: Same State 1) | 24.3 nM |  |  |  |  | 
UAGAGAGGAAGCGAGGAUAUCGUGGGAGGGACAUGAGGAUCACCCAUGUAGGAUGUUGAGAGGAACGAGAAGGCGCAGGAAAGUA [JR_SS2_Sub076] (puzzle: Same State 2) | 63.5 nM | 92.4 nM | 91.2 nM |  |  | 
AUUGCUUACGCAGGAUAUGAUGCGGAAACUGCGUCAGAAGGGUGAACAGAAUCGUUGCAAGAAGACAUGAGGAUCACCCAUGUC [SameState NG1 #96] (Eterna round: R96, puzzle: Same State NG 1) |  |  |  | 33.9 nM | 33.5 nM | 44.4 nM
AUACAUAUCAGAGGAUAUCACGUCGAUUAGACGUGAGAAGGCUGAUCACACAUGAAUAUUAAUACAUGAGGAUCACCCAUGUAU [SSNG1/14-A2] (Eterna round: R96, puzzle: Same State NG 1) |  |  |  | 20.6 nM | 14.8 nM | 18.8 nM
AAACACAGCAUAACGCCGUGACAUGAGGAUCACCCAUGUACACAGGAUAUCAUGGCAUAACGCCAUGAGAAGGGUGAUCAAGAC [Raorma] (Eterna round: R96, puzzle: Same State NG 3) |  |  |  | 732 nM | 77 nM | 78.8 nM
UGUUAACAUGAGGAUCACCCAUGUCAAAUGAAUCGAGGAUAUGGAAAGUAAUAAGAUGAACUAGAAGGUGAAGUUG [Altered State 1-19 - Jieux - Same State 1] (puzzle: Same State 1) | 55.7 nM | 37.1 nM | 57.3 nM |  |  | 

Sequence | apparent KD of MS2 coat protein [1] | apparent KD of MS2 coat protein [2] | apparent KD of MS2 coat protein [3] | apparent KD of MS2 coat protein (input ligand: FMN 200 uM) | apparent KD of MS2 coat protein [4] | apparent KD of MS2 coat protein (input ligand: none)
GUGGUCAGACAUGAGGAUCACCCAUGUGGAAUAAAUAACAGACAGGAUAUGUAAUAUAAAAUAUAACAGAAGGGUCGAUUGGUG (Eterna round: R96, puzzle: Same State NG 3) |  |  |  | 79.6 nM | 64.7 nM | 93.9 nM
AAAUGUAGGAAACAACAGCAAGAGCAUGUACAUGAGGAUCACCCAUGUCAUGUACAAGCUUUUUGCUGGUCUUAUUA [ak 2 mod of one Eli's designs..] (puzzle: Sensor for hsa-mir-208a) | 31 nM | 23.7 nM | 19.6 nM |  |  | 
GCCGCGUUUAACGCCUACAUGAGGAUCACCCAUGUAUGUAGGCAGGAUAUCGUUUGCUUUGCAAACGAGAAGGGCUGUAGUGGC [salish99_SSNG3_R04_006] (Eterna round: R96, puzzle: Same State NG 3) |  |  |  | 25.9 nM | 73.9 nM | 80.9 nM
GUACAGAUUAUAGGAUAUCACGUCGAUUAGACGUGAGAAGGAUAAUCACACAUGAAUAUUAAUACAUGAGGAUCACCCAUGUAC [SSNG1/17-A2] (Eterna round: R96, puzzle: Same State NG 1) |  |  |  | 12.9 nM | 12.9 nM | 17 nM
AAUUUCUAGAGAGGAUAUGCAGAGGAUCACCCUGCAGAAGGCUCGAGAGAGAGGAUAUGCAGAGGAUCACCCUGCAGAAGGCUC [pwkr ssNG DX.29] (Eterna round: R96, puzzle: Same State NG 1) |  |  |  | 14.5 nM | 14.7 nM | 18.4 nM
GCAUCACAUGAGGAUCACCCAUGUCUUCGGAGUGGAGGAUAUGGUCACUGUAAACAGUGGCCAGAAGGCCGGAUGC [SS1 - Son of Teenbexe v2] (puzzle: Same State 1) | 63.3 nM |  |  |  |  | 
GUAGCAUACCGAGGAUAUUCAUUAAACAUGAGGAUCACCCAUGUAAAUUAUAGGCGAAAGCCUUGGGAGAAGGCGGAAUGCUAC [Xeonanis - 20 Mod72] (Eterna round: R96, puzzle: Same State NG 2) |  |  |  | 11 nM | 11.3 nM | 19.1 nM
CUAUGACAUGAGGAUCACCCAUGUGAUAAUUUCAUAGGAUAUACGGCGCCGUUAAGGGCCGUAGAAGGGUGAUCGA [Veonti] (puzzle: Same State 1) | 30.7 nM | 35.4 nM | 22.9 nM |  |  | 
ACAUGAGACUCAGGAUAUCUUGUACCUACAUGUGACAUGAGGAUCACCCAUGUGGUAAGUAUGACAGAGAAGGGAGAGAUAUGU [Equivalance 87 - Jieux - Same State NG 2] (Eterna round: R96, puzzle: Same State NG 2) |  |  |  | 26.7 nM | 47.2 nM | 64.1 nM
UUGAGGAAUUAAGGAUAUUGAGUACAUAUGUUUAACAUGAGGAUCACCCAUGUGGGUUGCGGUAUCGAGAAGGUAAAUUACUAC [salish99_SSNG2_r04_801] (Eterna round: R96, puzzle: Same State NG 2) |  |  |  | 113 nM | 73.2 nM | 120 nM
GUGGCCCAGGCACAGGAUAUGUUUCUCGUAACAUGAGGAUCACCCAUGUGCCUAUGAGAUUUUAUGCAGAAGGGUGCACGCCACG [JL Atiinbe mod 01] (puzzle: Same State 2) | 56 nM | 18.5 nM | 123 nM |  |  | 
GCGAGCGUACUUGCUACAUGAGGAUCACCCAUGUUUACUGGACAGGAUAUGGUACCGUUUCGGUACCAGAAGGGUUCAUCAUGU [JL SSNG3 3.69] (Eterna round: R96, puzzle: Same State NG 3) |  |  |  | 278 nM | 248 nM | 597 nM
CUGAGCGAUCGAGGAUAUCACGUCGAAUAGACGUGAGAAGGCGAUCAUAACAUGAGGAUCACCCAUGUAUUACAUGAAGCUCAG [SSNG1/4-A1] (Eterna round: R96, puzzle: Same State NG 1) |  |  |  | 13.2 nM | 10.5 nM | 17.8 nM
GGAAUAUGAUGUUACAUGAGGAUCACCCAUGUAGUAAUAACUAAGGAUAUCUGAAAGGGAGGAGAAGAGAAGGUAGGAUCAUAA [AK SSNG3-V2-10.2] (Eterna round: R96, puzzle: Same State NG 3) |  |  |  | 60 nM | 35.4 nM | 56.4 nM
UGUUGUUAACUAGGAUAUGGUCACAUGAGGAUCACCCAUGUAAUGUCGAUGCUAUGUGGAUUUGAUCAGAAGGAGUGGUUAACA [SameState NG2 #99] (Eterna round: R96, puzzle: Same State NG 2) |  |  |  | 66.4 nM | 58.8 nM | 58.4 nM

From the supplement of paper PMC9170038
